How the values were obtained:
[1] = target: T1, human programmed death receptor 1 (PD-1) (human, UniProt Q15116 25-288); test: in vitro PD-1 receptor saturation on CD8+ T cells, flow cytometry, whole blood, Emax model fit
T1 construct: whole, on cells; Endogenous PD-1 on T cells of donors or study subjects; also called PD-1 receptor

[2] = target: T1, human programmed death receptor 1 (PD-1); test: ratio of in vitro PD-1 receptor saturation EC50 values on CD8+ T cells, reference mAb2

T1 sequence (Q15116 25-288): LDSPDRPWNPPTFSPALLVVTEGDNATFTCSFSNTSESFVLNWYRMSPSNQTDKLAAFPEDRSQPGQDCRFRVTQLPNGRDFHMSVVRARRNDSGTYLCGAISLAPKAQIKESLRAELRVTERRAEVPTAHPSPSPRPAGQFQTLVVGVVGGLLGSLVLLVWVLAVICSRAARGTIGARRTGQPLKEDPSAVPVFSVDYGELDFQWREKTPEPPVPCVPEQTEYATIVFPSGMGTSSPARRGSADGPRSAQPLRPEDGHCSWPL

B1: cemiplimab (Catalog No. A2022, Selleckchem) (antibody, V domains shown)
VH: EVQLLESGGVLVQPGGSLRLSCAASGFTFSNFGMTWVRQAPGKGLEWVSGISGGGRDTYFADSVKGRFTISRDNSKNTLYLQMNSLKGEDTAVYYCVKWGNIYFDYWGQGTLVTVSS
VL: DIQMTQSPSSLSASVGDSITITCRASLSINTFLNWYQQKPGKAPNLLIYAASSLHGGVPSRFSGSGSGTDFTLTIRTLQPEDFATYYCQQSSNTPFTFGPGTVVDFR
With B1 the EC95 [1] was 0.366 µg/mL and the “Scaling Factor (ratio of EC50 of PD-1 saturation to the EC50 of mAb2)” value [2] was 2.67.

From patent publication US20250059280A1 (AbbVie / Abbott, published 2025)
